This is an account of results in US6116237A, “Methods of dry powder inhalation” (priority 1997, dated 2000).

A short description of this data set: Systemic delivery of calcitonin as model peptide following dosing with the Spiros system, compared to subcutaneous injection. It is filed as in vivo. To be noted: calcitonin/lactose blend, estimated. From the text:
5. Using calcitonin as a model peptide for systemic delivery, the bioactivity following dosing with the Spiros system has been estimated to be greater than 20% compared to a subcutaneous injection.

On to calcitonin, for which the “bioactivity following dosing with the Spiros system compared to a subcutaneous injection (systemic availability)” value is on record as “greater than 20%”.
